Entries after “also recorded” stand apart in the source; their conditions may differ. Like-named read-outs stand apart in the source and are kept apart here.
How the values were obtained:
Assay type in all cases: cell-based
E. coli = assay: Effect of induced expression of cloned SPO1 genes on growth and viability of E. coli (liquid medium and colony formation); conditions: cloned gene(s) expressed from IPTG-inducible promoter, * = lethality conclusion based on failure to clone, ** = data not conclusive
Source text: (§1) For analysis of antimicrobial activity we first cloned most of the 24 host-takeover genes (genes 37-60) singly or in multiple gene combinations into a B. subtilis/E. coli shuttle vector (pPW19) under control of an IPTG-inducible promoter (Wei and Stewart, 1993). […] These remaining genes are being cloned using expression vectors with more tightly regulated promoters, such as pJONEX4 (Sayers, 1996), pET101, or pX (Kim et al., 1996). The transformed E. coli and B. subtilis were used to determine the antimicrobial activity, if any, of the cloned genes. The effect of induction on bacterial growth and viability was measured both in liquid medium and by colony formation. Definitive establishment of lethality was shown by loss of the ability to form colonies even after removal from the inducing agent. Indication of probable lethality was based on total inability to form colonies under inducing conditions.

bacteria = assay: Toxicity or lethality of expression of cloned SPO1 genes, bacterium not given
Source text: as §1
In cells growing in liquid medium, expression of the cloned gene 44 was induced at time 0. At subsequent times, the number of cells remaining viable was measured by plating in the absence of inducer. More than 99% of the cells were killed within three hours.

B. subtilis = assay: Effect of induced expression of cloned SPO1 genes on growth and viability of B. subtilis (liquid medium and colony formation); conditions: cloned gene(s) expressed from IPTG-inducible promoter, * = lethality conclusion based on failure to clone, ** = data not conclusive
Source text: as §1

Gene 37: product of SPO1 host-takeover gene 37, SEQ ID NO: 1 (MSDVIIPFLTSAVTAFIVAYLLDRWYIKRRR; SPO1 Bacteriophage)
Lethality, E. coli (E. coli): Lethal * | toxicity or lethality of expression (bacteria): lethal

Gene 58: product of SPO1 host-takeover gene 58, SEQ ID NO: 22 (MTLAGYRVDSCNGCGKAYLVGESHDRKKCAECASK; SPO1 Bacteriophage)
Lethality, E. coli (E. coli): Mildly toxic | Lethality, B. subtilis (B. subtilis): No effect

B1: Gene 39: product of SPO1 host-takeover gene 39, SEQ ID NO: 3 (protein)
chain: MELNLDIYVDYKDKRYKAEGYYGPSVGDLVLIFMDMELEGATVQEVARIEGSEIHLRTPNGNEPSYRYMGQYLILKPYGSSDPRGDILVHEDVQYVRVDAQAMPGDLIEALEPNKLPFSGKRFKYRPAVLEVEYVLTKDEQVLQLENGKSYSGAYRVLIPRMGVLPPKTHIYTTHKHVFMEDVFVLGNSYELSSPNDVEMTPIHAVFTGFSKNRDEAIFVNPYYNDDGVTGTMITVSDLLTGKWDITPLVPKKGV
modifications: SPO1 Bacteriophage
Lethality, E. coli (E. coli): Lethal | toxicity or lethality of expression (bacteria; listed as 39): lethal effect

B2: Gene 40: product of SPO1 host-takeover gene 40, SEQ ID NO: 4 (protein)
chain: MHIYTYWGLKYVPSNSTMVAKEGDLILLGNEVHKVVKVLHRFRNITDLQITNWKGTETRYNLHVTEYKVLVPYDTHKEENEAMSDSLITHNGKDYVLCKIPARVGDLIRTEDKRVWEVLQKSKDGLVLYNEEKGEQRSAVYSEIGPYHVLVPRDTDTHTPTREELAAVIMNKAFTRTETQDSQEDTGTHKGLGLTGTDLYHSLRDLDAKVQSGYYTATENEEDVKSEIEATKKHMKAVKESGKTVNDYRKEENTKRCKLKALTNKFNRLFLKSVIDTDSLQVGKAYLIGGRDMKNVHGLYTGTTFDQQHANFLIVETDRMHRTLTVSAEQLFAEERHIVDIEKRVEQTED
modifications: SPO1 Bacteriophage
Lethality, E. coli (E. coli; listed as 40): only mildly toxic | Lethality, B. subtilis (B. subtilis; listed as 40): only mildly toxic; also recorded: Inconsistent

B3: Gene 41: product of SPO1 host-takeover gene 41, SEQ ID NO: 5 (protein)
chain: MEKLPNTVVKVHGEGMESKLFPRKLHKDTNSILREDLVSACQEHIEALVEGMIAHGDGRKVAELDTSTQYYWHLKLVEYTPIPGRTQHYVDLVDGTNPDVCYFSLCDCSGDNITDRRWSNMVKRLQNPEEDIAKTLRCYFRQDAGMPSWIEYPQ
modifications: SPO1 Bacteriophage
Lethality, E. coli (E. coli; listed as 41): only a mild effect; also recorded: Mildly Toxic | Lethality, B. subtilis (B. subtilis; listed as 41): lethal; also recorded: Lethal *

B4: Gene 42: product of SPO1 host-takeover gene 42, SEQ ID NO: 6 (protein)
chain: MRKFVTTLTASPRNKKVGNHRLEISPFVSLRRYYYFNTAICIENPVTREFAIDDSYGSLSTNQNCAQYRQYFSLGGYKEVSLEEIHAV
modifications: SPO1 Bacteriophage
Lethality, E. coli (E. coli; listed as 42): no toxic effect | Lethality, B. subtilis (B. subtilis; listed as 42): no toxic effect

B5: Gene 43: product of SPO1 host-takeover gene 43, SEQ ID NO: 7 (protein)
chain: MIQLSERQQDLLQVAEKYEQCHIEFYTAQSRLFGTEIMGEVVKTSLGTLKIAHPEEDLFEVALAYLASKKDILTAQERKDVLFYIQNNLC
modifications: SPO1 Bacteriophage
Lethality, E. coli (E. coli; listed as 43): too inconsistent to permit any conclusion; also recorded: Indeterminate | Lethality, B. subtilis (B. subtilis; listed as 43): too inconsistent to permit any conclusion; also recorded: Indeterminate

B6: Gene 46: product of SPO1 host-takeover gene 46, SEQ ID NO: 10 (protein)
chain: MMTEDQKFKYLTKIEELEAGCFSDWTKEDITGDLKYLKKGIIEESIELIRAVNGLTYSEELHDFTQEIIEELDISPL
modifications: SPO1 Bacteriophage
Lethality, E. coli (E. coli): Lethal | toxicity or lethality of expression (bacteria): lethal but with diminished efficiency | Lethality, B. subtilis (B. subtilis): Mildly Toxic

B7: Gene 45: product of SPO1 host-takeover gene 45, SEQ ID NO: 9 (protein)
chain: MMMDKQVEEVKKHYPIVEDWSVIVARKEDDCMTVTDAVPFILAGYKNVSYEMDDIVVLCSEPIGLTWEDVRFLKNHEGSVSFEEIGYEDKAMVYHVDLG
modifications: SPO1 Bacteriophage
Lethality, E. coli (E. coli): Toxic | toxicity or lethality of expression (bacteria): toxic but not lethal | Lethality, B. subtilis (B. subtilis): Mildly Toxic

B8: Gene 47: product of SPO1 host-takeover gene 47, SEQ ID NO: 11 (protein)
chain: MDWTKMTFMGTVDEVKEIWNGLEEAGRLYAVWLSDDHVYGIVDVNEEGLFCLGWVSDISPESLQNMLGGGAELFESYEDVLSEHGGSIAIRVEV
modifications: SPO1 Bacteriophage
Lethality, E. coli (E. coli; listed as 47): little or no effect; also recorded: No effect | Lethality, B. subtilis (B. subtilis; listed as 47): little or no effect; also recorded: No effect

B9: Gene 48: product of SPO1 host-takeover gene 48, SEQ ID NO: 12 (protein)
chain: MPYSKITVPVLVGEGLTEWDVIDVMRETHPPTVEDQYHYHTFDSMQNRTIFVLENPLYPDVDKIPEKVLGIAVDALEDMLDNVPVEDLPVTEEQGNVKRFTTKLASIVFDVFLIIPDFVSVTAKEE
modifications: SPO1 Bacteriophage
Lethality, E. coli (E. coli; listed as 48): strongly toxic but not lethal; also recorded: Strongly Toxic | Lethality, B. subtilis (B. subtilis; listed as 48): strongly toxic but not lethal; also recorded: Strongly Toxic

B10: Gene 52: product of SPO1 host-takeover gene 52, SEQ ID NO: 16 (protein)
chain: MTHFISIATYIYALVSAGFIGGWHDEESWIKDTEYEHGGYHMIIDTPAVVNYSLEYGNYQWIFQKYMKEGKVTVERFYRNSLDIPKEILTDEALAFIKDWDENANEYELHAGEGVLYFKYEGEEKGYVIPMAYAGEIMFVPDEDAEKALEIINSQKKY
modifications: SPO1 Bacteriophage
Lethality, E. coli (E. coli; listed as 52): Lethal

B11: Gene 57: product of SPO1 host-takeover gene 57, SEQ ID NO: 21 (protein)
chain: MTLFIAGVTLEEVREATVSALFVKLEQEKKALYLGAGSEDSLNLCKSTLDKVQEDYPLDDMEKDYLRDLLQFWLSRLFLGDGFEGEIPDSSEDLRRTATTAFTYTAAIRHYCM
modifications: SPO1 Bacteriophage
Lethality, E. coli (E. coli): Mildly toxic | Lethality, B. subtilis (B. subtilis): No effect

B12: Gene 38: product of SPO1 host-takeover gene 38, SEQ ID NO: 2 (protein)
chain: MSVQIKHGNKTFVVDPSGDVKEGSYVLYLYEYRLGEVDVGRVSEVANDGRLYLDGPGVIVTLDQPFILLKEVVEEEEDEDDRIDAEFHNDPLLRKLENTTEKLTPEETQLAQWTTMTRVFSHDLKKGIPYAIKHKNSGNILYGLYSGLLNPVTALFRHLNEESKISIEQLKSGLIEIYEVVEDEEESIWN
modifications: SPO1 Bacteriophage
Lethality, E. coli (E. coli): Highly toxic | Lethality, B. subtilis (B. subtilis): No effect **

Source: patent US20050054571A1, “Antimicrobial proteins from the SPO1 bacteriophage” (Rice University, priority 2003, published 2005)
